{"source": "paper doi:10.1101/2024.02.06.579161", "binders": {"B1": {"name": "S100A9, P06702 1-114 (natural protein)", "chain": "MTCKMSQLERNIETIINTFHQYSVKLGHPDTLNQGEFKELVRKDLQNFLKKENKNEKVIEHIMEDLDTNADKQLSFEEFIMLMARLTWASHEKMHEGDEGPGHHHKPGLGEGTP"}}, "target": "T1, S100A9, P06702", "T1 chain": "B1 chain", "assay": "SDS-PAGE", "settings": "remark: other sources report otherwise", "data": [{"binder": "B1", "values": [{"measurement": "stoichiometry N", "value": 2}]}]}
